The results in this text go back to patent publication US20200255516A1 (JIANGSU HENGRUI MEDICINE, published 2020).

Assay [1] deals with T1, cynoTIGIT-mFc (fusion protein of cynoTIGIT extracellular domain and mouse IgG2a Fc fragment) (cynomolgus).
T1 construct: also called monkey TIGIT; cynomolgus TIGIT-mFc fusion protein
As to the kind of experiment: ELISA: cynomolgus TIGIT-Fc or TIGIT-mFc captured by coated anti-Fc antibody, HRP secondary antibody, OD450. Background: ELISA stands for enzyme-linked immunosorbent assay.

In assay [2] the target is T2, TIGIT fusion protein with Fc or mFc tag (human, UniProt Q495A1 22-141).
T2 construct: extracellular domain; also called TIGIT-Fc; TIGIT-mFc
T2 sequence (looked up): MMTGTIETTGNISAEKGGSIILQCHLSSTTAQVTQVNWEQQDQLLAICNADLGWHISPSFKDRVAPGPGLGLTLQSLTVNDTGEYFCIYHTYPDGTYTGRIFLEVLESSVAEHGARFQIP
Kind of assay: FACS blocking assay: TIGIT-mFc pre-incubated with the antibody, added to CHO cells overexpressing CD112 (blocked ligand), PE anti-mouse IgG, MFI.

In assay [3] the target is T1, cynoTIGIT-mFc (fusion protein of …). As to the kind of experiment: SPR (Biacore T200), antibody held by Fc affinity capture, cynoTIGIT-mFc in mobile phase, 1:1 Langmuir fit. A general note: In SPR one partner is held on a chip, and binding of the other changes the refractive index at the surface.
Assay [4] has as its target T2, TIGIT fusion protein with Fc or mFc tag. Kind of assay: blocking cell ELISA: TIGIT-hFc or TIGIT-mFc (0.2 ug/ml) pre-mixed with the antibody, added to fixed CHO cells overexpressing CD155 (blocked ligand), OD450.
For assay [5], the target named is T3, human TIGIT on SEB-activated human PBMC (human, UniProt Q495A1).
T3 construct: native, on the cell surface
T3 sequence (receptor chain, looked up): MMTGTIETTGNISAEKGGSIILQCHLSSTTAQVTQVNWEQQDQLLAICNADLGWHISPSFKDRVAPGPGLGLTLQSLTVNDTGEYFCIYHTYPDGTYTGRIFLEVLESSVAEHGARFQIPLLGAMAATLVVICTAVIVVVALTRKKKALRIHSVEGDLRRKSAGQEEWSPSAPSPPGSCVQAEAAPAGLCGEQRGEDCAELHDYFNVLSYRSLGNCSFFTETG
Kind of assay: flow cytometry on SEB-activated human PBMC, PE anti-human IgG, MFI. For orientation: In flow cytometry, cells or beads pass a laser one at a time.

Assay [6] has as its target T4, human TIGIT (Sinobiological Co., Ltd., Cat. 10917-H08-H) (human, UniProt Q495A1 22-141).
T4 construct: also called huTIGIT; TIGIT-His
T4 sequence (looked up): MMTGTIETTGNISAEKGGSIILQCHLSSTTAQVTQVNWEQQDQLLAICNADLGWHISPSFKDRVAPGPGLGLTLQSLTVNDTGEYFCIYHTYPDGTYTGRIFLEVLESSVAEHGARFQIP
As to the kind of experiment: SPR (Biacore T200), antibody captured via Protein A, huTIGIT in mobile phase, 1:1 Langmuir fit.

Assay [7] concerns the target T5, Full-length human TIGIT on CHO cells overexpressing TIGIT (human, UniProt Q495A1 22-244).
T5 construct: also called TIGIT-CHO cells; CHO cells overexpressing human TIGIT
T5 sequence: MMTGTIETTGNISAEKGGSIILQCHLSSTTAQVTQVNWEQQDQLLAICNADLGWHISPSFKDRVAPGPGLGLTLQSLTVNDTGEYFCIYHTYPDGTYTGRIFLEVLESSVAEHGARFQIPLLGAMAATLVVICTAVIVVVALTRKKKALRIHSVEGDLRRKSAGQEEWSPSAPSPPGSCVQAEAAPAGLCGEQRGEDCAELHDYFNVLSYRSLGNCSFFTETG
As to the kind of experiment: FACS blocking assay on TIGIT-CHO cells; competitor CF633-labeled CD155-Fc at 2 ug/ml.

The target of assay [8] is T2, TIGIT fusion protein with Fc or mFc tag. Kind of assay: HTRF blocking assay: TIGIT-Fc or TIGIT-mFc with biotinylated CD155 as the blocked ligand, ratio 665/620.
Assay [9] concerns the target T5, Full-length human TIGIT on CHO cells …. Kind of assay: cell ELISA on fixed CHO cells overexpressing human TIGIT.
For assay [10], the target named is T2, TIGIT fusion protein with Fc or mFc tag. Kind of assay: ELISA: human TIGIT-Fc or TIGIT-mFc captured by coated anti-Fc antibody, HRP secondary antibody, OD450.
Assay [11] has as its target T4, human TIGIT (Sinobiological Co., Ltd., …). Kind of assay: SPR (Biacore), captured antibody, TIGIT-His as analyte.

T1 sequence (chain, as listed by the source limits assumed): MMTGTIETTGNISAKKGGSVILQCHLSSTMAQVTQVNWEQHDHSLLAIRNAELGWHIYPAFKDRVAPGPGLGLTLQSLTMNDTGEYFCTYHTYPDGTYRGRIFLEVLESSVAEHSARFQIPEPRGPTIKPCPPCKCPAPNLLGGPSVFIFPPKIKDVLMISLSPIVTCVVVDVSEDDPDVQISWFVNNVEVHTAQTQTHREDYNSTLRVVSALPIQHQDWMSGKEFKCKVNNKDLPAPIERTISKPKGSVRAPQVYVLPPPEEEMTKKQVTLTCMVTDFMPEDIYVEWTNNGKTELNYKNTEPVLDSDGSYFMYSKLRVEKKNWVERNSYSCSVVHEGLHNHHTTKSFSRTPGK

B1: h1710-01 (antibody, human IgG4 S228P, kappa, V domains shown)
VH: EVQLVQSGAEVKKPGASVKVSCKASGYTFTNYYMHWVRQAPGQGLEWMGRIDPTSGATKYNDNFKGRVTMTRDTSTSTVYMELSSLRSEDTAVYYCAREGGFGYYFDYWGQGTTVTVSS
VL: DIQMTQSPSSLSASVGDRVTITCRTSENIFTYLAWYQQKPGKAPKLLIYNAKTFAEGVPSRFSGSGSGTDFTLTISSLQPEDFATYYCQHHYGIPLPFGQGTKLEIKR
notes: also called humanized TIGIT antibody h1710-01
Usually EC50 (read off the curve) stands for the concentration needed to bring the measured effect to its halfway point. Read a high EC50 (read off the curve) as weaker potency. Usually Kd stands for the constant that tells how readily two partners part at equilibrium. Lower therefore signals tighter binding. As a reminder, the koff is a measure of how fast the partners let go of each other. Lower therefore signals slow dissociation. One may read the kon as the rate constant with which the complex forms. Usually IC50 stands for the concentration that gives 50% inhibition. The low end stands for higher potency, the high end for lower potency. The term EC50 denotes the concentration needed to bring the measured effect to its halfway point. A higher EC50 goes with lower potency in that assay. As to B1, the “EC50 (read off the curve)” value is about 0.1 nM in [1], about 0.3 nM in [5] and about 0.1 nM in assay [10]. Further, the figures for the “IC50 (read off the curve)” value in assay [2], in assay [4] and in assay [8] were about 5 nM, about 1 nM and about 2 nM, respectively. Moreover, the results for the Kd in assay [3] and in [6] were 0.322 nM and 0.147 nM, respectively. Besides, the figures for the koff in [3] and in assay [6] were 0.000371 s⁻¹ and 0.00024 s⁻¹, respectively. In addition, the results for the kon in assay [3] and in assay [6] were 1.15e+06 M⁻¹ s⁻¹ and 1.63e+06 M⁻¹ s⁻¹, respectively. The same molecule yielded an IC50 in [7] of 0.468 nM. Also, a half-maximal effect in [9] (EC50) was put at 0.0769 nM.

B2: h1711-04 (antibody, human IgG4 S228P, kappa, V domains shown)
VH: EVQLVQSGAEVKKPGSSVKVSCKASGYTFSNYWIGWVRQAPGQGLEWIGDIYPGGAYTNYNEKFKDRVTITADKSTSTAYMEFSSLRSEDTAVYYCTRGDYYDSSGRAMDYWGQGTLVTVSS
VL: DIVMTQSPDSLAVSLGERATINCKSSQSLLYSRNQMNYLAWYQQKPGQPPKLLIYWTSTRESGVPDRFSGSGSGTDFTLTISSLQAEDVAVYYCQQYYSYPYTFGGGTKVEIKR
notes: also called humanized TIGIT antibody h1711-04
Turning to B2, the figures for the “EC50 (read off the curve)” value in [1], in assay [5] and in assay [10] were about 0.1 nM, about 0.3 nM and about 0.1 nM, respectively. For the same molecule, the “IC50 (read off the curve)” value is about 5 nM in assay [2], about 1 nM in assay [4] and about 3 nM in assay [8]. The Kd in assay [11] is 0.21 nM; in assay [3] it was 0.129 nM; in assay [6], 0.238 nM. Further, the results for the koff in assay [11], in [3] and in assay [6] were 0.000442 s⁻¹, 0.000317 s⁻¹ and 0.000436 s⁻¹, respectively. Further, the values for the kon in [11], in assay [3] and in [6] were 2.1e+06 M⁻¹ s⁻¹, 2.46e+06 M⁻¹ s⁻¹ and 1.83e+06 M⁻¹ s⁻¹, respectively. Moreover, the IC50 in assay [7] worked out at 0.57 nM. The molecule also registered an EC50 in assay [9] of 0.0587 nM.

B3: h1709-10 (antibody, human IgG4 S228P, kappa, V domains shown)
VH: EVQLVQSGAEVKKPGASVKVSCKASGYTFTDYYMHWVRQAPGQGLEWMGLVYPYNDNTGYNRKFKGRVTMTVDTSTSTVYMELNSLRSEDTAVYYCARGGPSNWNYFDYWGQGTLVTVSS
VL: DIQMTQSPSSLSASVGDRVTITCKASQNVVTAVAWYQQKPGKSPKLLIYSASNRYTGVPDRFSGSGSGTDFTLTISSLQPEDFATYFCQQYTLYPLTFGGGTKVEIKR
notes: also called humanized TIGIT antibody h1709-10
Consider B3, for which the “EC50 (read off the curve)” value was about 0.1 nM in assay [1], about 0.3 nM in assay [5] and about 0.1 nM in assay [10]. Also, the figures for the “IC50 (read off the curve)” value in [2], in assay [4] and in assay [8] were about 5 nM, about 1 nM and about 3 nM, respectively. For the same molecule, the Kd amounted to 0.3 nM in [3] and 0.104 nM in [6]. For the same molecule, the koff in assay [3] amounted to 0.000415 s⁻¹; in [6], 0.000259 s⁻¹. In addition, the figures for the kon in [3] and in [6] were 1.39e+06 M⁻¹ s⁻¹ and 2.49e+06 M⁻¹ s⁻¹, respectively. Besides, the IC50 in assay [7] came to 0.427 nM. The molecule further came in with an EC50 in assay [9] of 0.0568 nM.
